Drawing on patent US20230083670A1 (IMMUNEONCO BIOPHARMACEUTICALS SHANGHAI, published 2023), this text covers IC50 and EC50 for two molecules.

The target of assay [1] is T1, PD-L1 on CHO cells expressing human PD-L1 (CHO-PDL1) (human, UniProt Q9NZQ7 19-290).
T1 construct: whole, on cells; Species is stated as human for the CHO-PDL1 cells; also called CHO-PD-L1 cells; Raji-PD-L1 cells
In words: flow cytometry competition; blocks Biotin-hPD1-mFc (1 µg/ml) on CD47- PD-L1+ CHO cells. As for the experimental part:
Cells were incubated at 4° C. for 45 minutes, washed with PBS, and then further incubated at 4° C. for another 45 minutes with PE-conjugated mouse Anti-human CD279 (Cat #557946, BD BioScience).

The target in assay [2] is T2, CD47 on Jurkat cells (UniProt Q08722 19-323, limits assumed).
T2 construct: whole, on cells; also called CD47-expressing Raji cells
In words: flow cytometry on Jurkat cells, FITC anti-human IgG-Fc. As for the experimental part: (§1) Cells were washed with cold PBS twice, and then incubated with FITC-conjugated secondary antibody against human IgG-Fc (Cat #F9512, Sigma) for 45 min. Cells were washed twice and re-suspended in […] PBS. Then, the cells were subject to FACS analysis using a flow cytometer (Merck Millipore, Guava® easyCyte 5HT).
(Flow cytometry measures light scatter and fluorescence of single cells or particles in a stream.)

In assay [3] the target is T1, PD-L1 on CHO cells expressing human …. In words: flow cytometry on CHO-PD-L1 cells, FITC anti-human IgG-Fc. As for the experimental part:
as §1

For assay [4], the target named is T2, CD47 on Jurkat cells. In words: flow cytometry competition; blocks FITC-SIRPα-Fc (80 nM) on PD-L1- CD47+ Raji cells. As for the experimental part:
The mixtures were added to a 96-well plate containing PD-L1⁻ or PD-L1⁺ CD47-expressing Raji cells, and the plate was incubated at 4° C. for 45 minutes.

T1 sequence (Q9NZQ7 19-290): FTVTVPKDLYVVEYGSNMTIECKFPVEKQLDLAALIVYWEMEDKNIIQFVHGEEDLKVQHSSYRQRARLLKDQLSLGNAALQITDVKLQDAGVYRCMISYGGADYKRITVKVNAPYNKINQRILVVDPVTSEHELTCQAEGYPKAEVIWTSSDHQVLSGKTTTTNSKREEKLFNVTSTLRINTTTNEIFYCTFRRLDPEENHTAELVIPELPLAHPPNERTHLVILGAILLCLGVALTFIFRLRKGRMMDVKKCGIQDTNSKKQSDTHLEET

B1: IMM2515 (antibody, human IgG1, kappa, V domains shown)
VH: QVQLVQSGAEVKKPGASVKVSCKASGYTFTSNWMHWVRQAPGQGLEWMGMIHPNSGSSNYNEKFKSRVTMTRDTSTSTVYMELSSLRSEDTAVYYCARSYYGSSPYYFDYWGQGTLVTVSS
VL: DIQMTQSPSSLSASVGDRVTITCRASQDIINYLNWYQQKPGKAPKLLIYYTSRLHSGVPSRFSGSGSGTDFTFTISSLQPEDIATYYCQQGDTLPWTFGQGTKVEIKR
notes: also called monoclonal anti-PD-L1 antibody; monospecific anti-PD-L1 antibody IMM2515
As to B1, in assay [1], the IC50 was below 1 nM.

B2: IMM2521 (bispecific antibody, human IgG1, kappa)
heavy: QVQLVQSGAEVKKPGASVKVSCKASGYTFTSNWMHWVRQAPGQGLEWMGMIHPNSGSSNYNEKFKSRVTMTRDTSTSTVYMELSSLRSEDTAVYYCARSYYGSSPYYFDYWGQGTLVTVSSASTKGPSVFPLAPSSKSTSGGTAALGCLVKDYFPEPVTVSWNSGALTSGVHTFPAVLQSSGLYSLSSVVTVPSSSLGTQTYICNVNHKPSNTKVDKRVEPKSCDKTHTCPPCPAPELLGGPSVFLFPPKPKDTLMISRTPEVTCVVVDVSHEDPEVKFNWYVDGVEVHNAKTKPREEQYNATYRVVSVLTVLHQDWLNGKEYKCKVSNKALPAPIAATISKAKGQPREPQVYTLPPSREEMTKNQVSLTCLVKGFYPSDIAVEWESNGQPENNYKTTPPVLDSDGSFFLYSKLTVDKSRWQQGNVFSCSVMHEALHNHYTQKSLSLSPGK
light: not shown
notes: SIRPαD1 mutant linked through the linker to the N-terminus of each light chain of IMM2515; also called recombinant fusion protein IMM2521; PD-L1×CD47 bispecific
Turning to B2, the EC50 was found to be 0.7 nM with CD47 on Jurkat cells [2] and 0.11 nM in assay [3]. Also, the figures for the IC50 (with CD47 on Jurkat cells [4]; in assay [1]) were 140 nM and below 1 nM, respectively.

Usually IC50 stands for the concentration that gives 50% inhibition. Low values mean inhibition by little substance, high ones a need for much substance. One may read the EC50 as the concentration giving half of the maximal effect.
